Laboratory results taken from PMC9482650, “Quantitative fragmentomics allow affinity mapping of interactomes” (Nature Communications, 2022).

T1: MPP2, Q14168
T1 sequence (Q14168 180-250, limits assumed, looked up): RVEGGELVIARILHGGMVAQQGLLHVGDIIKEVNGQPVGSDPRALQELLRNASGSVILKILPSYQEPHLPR

T2: DVL3, Q92997
T2 sequence (Q92997 244-331, limits assumed, looked up): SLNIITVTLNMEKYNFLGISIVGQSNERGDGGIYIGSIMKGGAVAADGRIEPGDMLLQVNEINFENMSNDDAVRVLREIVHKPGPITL

T3: GRIP1_5, Q9Y3R0
T3 sequence (Q9Y3R0 568-668, limits assumed, looked up): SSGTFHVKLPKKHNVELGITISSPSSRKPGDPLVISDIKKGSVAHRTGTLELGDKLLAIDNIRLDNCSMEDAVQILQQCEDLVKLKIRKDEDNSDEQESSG

T4: LNX2_2, Q8N448
T4 sequence (Q8N448 334-432, limits assumed, looked up): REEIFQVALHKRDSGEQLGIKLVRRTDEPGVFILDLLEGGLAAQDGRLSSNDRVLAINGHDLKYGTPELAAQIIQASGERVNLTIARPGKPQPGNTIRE

T5: GRIP1_4, Q9Y3R0
T5 sequence (Q9Y3R0 467-571, limits assumed, looked up): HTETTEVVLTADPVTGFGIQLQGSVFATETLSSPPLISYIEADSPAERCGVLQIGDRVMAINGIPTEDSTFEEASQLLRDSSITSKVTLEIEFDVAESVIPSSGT

T6: ARHGEF11, O15085
T6 sequence (O15085 42-136, limits assumed, looked up): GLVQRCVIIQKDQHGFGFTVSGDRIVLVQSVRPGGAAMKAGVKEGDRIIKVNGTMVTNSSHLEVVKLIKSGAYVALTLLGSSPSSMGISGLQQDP

T7: TIAM2, Q8IVF5
T7 sequence (Q8IVF5 885-986, limits assumed, looked up): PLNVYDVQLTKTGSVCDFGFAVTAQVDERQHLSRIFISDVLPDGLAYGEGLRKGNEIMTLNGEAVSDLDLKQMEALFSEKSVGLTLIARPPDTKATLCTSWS

T8: LNX2_3, Q8N448
T8 sequence (Q8N448 463-564, limits assumed, looked up): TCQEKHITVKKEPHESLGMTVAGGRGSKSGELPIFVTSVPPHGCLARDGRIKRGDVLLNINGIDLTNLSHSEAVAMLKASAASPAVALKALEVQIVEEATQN

T9: LIN7B, Q9HAP6
T9 sequence (Q9HAP6 88-185, limits assumed, looked up): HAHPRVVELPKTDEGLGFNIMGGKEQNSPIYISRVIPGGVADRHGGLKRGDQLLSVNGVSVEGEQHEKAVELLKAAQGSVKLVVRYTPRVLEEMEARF

T10: DLG3_3, Q92796
T10 sequence (Q92796 374-475, limits assumed, looked up): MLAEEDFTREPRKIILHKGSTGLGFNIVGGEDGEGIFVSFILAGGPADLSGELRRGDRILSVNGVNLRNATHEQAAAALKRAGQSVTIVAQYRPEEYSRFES

T11: RADIL, Q96JH8
T11 sequence (Q96JH8 971-1071, limits assumed, looked up): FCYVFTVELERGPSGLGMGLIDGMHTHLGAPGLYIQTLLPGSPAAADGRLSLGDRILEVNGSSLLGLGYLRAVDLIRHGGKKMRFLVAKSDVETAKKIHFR

T12: NHERF3_1, Q5T2W1
T12 sequence (Q5T2W1 4-100, limits assumed, looked up): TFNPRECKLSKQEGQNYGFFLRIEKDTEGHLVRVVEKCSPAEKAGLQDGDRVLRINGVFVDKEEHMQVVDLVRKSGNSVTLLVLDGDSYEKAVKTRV


target: NOS1, P29475; assay: holdup assay; parameters: key: below the threshold = too weak to quantify, mostly under pKd 3.1 to 4; details: plain residues with an end cap or a label only (N-terminal biotin on a linker: ado-ado)
Sequence (P29475 9-101): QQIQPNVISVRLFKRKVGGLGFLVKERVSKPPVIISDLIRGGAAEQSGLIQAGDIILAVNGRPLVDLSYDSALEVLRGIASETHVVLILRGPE

Row | Binder | pKd
1 | HDDYFYHDEL [RCN2, Q14257] | below the threshold
2 | THREVKFTSL [CD46, P15529] | 3.75

target: PARD3_3, Q8TEW0; assay: holdup assay; parameters: key: below the threshold = too weak to quantify, mostly under pKd 3.1 to 4; details: plain residues with an end cap or a label only (N-terminal biotin on a linker: ado-ado)
Sequence (Q8TEW0 582-685): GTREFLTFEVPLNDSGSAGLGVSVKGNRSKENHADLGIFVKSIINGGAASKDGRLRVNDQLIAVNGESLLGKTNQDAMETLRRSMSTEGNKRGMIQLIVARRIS

Row | Binder | pKd
3 | HDDYFYHDEL [RCN2, Q14257] | 3.96
4 | THREVKFTSL [CD46, P15529] | below the threshold

target: T1, MPP2, Q14168; assay: holdup assay; parameters: key: below the threshold = too weak to quantify, mostly under pKd 3.1 to 4; details: plain residues with an end cap or a label only (N-terminal biotin on a linker: ado-ado)

Row | Binder | pKd
5 | HDDYFYHDEL [RCN2, Q14257] | below the threshold
6 | THREVKFTSL [CD46, P15529] | below the threshold

target: T2, DVL3, Q92997; assay: holdup assay; parameters: key: below the threshold = too weak to quantify, mostly under pKd 3.1 to 4; details: plain residues with an end cap or a label only (N-terminal biotin on a linker: ado-ado)

Row | Binder | pKd
7 | HDDYFYHDEL [RCN2, Q14257] | below the threshold
8 | THREVKFTSL [CD46, P15529] | below the threshold

target: T3, GRIP1_5, Q9Y3R0; assay: holdup assay; parameters: key: below the threshold = too weak to quantify, mostly under pKd 3.1 to 4; details: plain residues with an end cap or a label only (N-terminal biotin on a linker: ado-ado)

Row | Binder | pKd
9 | HDDYFYHDEL [RCN2, Q14257] | below the threshold
10 | THREVKFTSL [CD46, P15529] | below the threshold

target: Inadl_2, Q8NI35; assay: holdup assay; parameters: key: below the threshold = too weak to quantify, mostly under pKd 3.1 to 4; details: plain residues with an end cap or a label only (N-terminal biotin on a linker: ado-ado)
Sequence (Q8NI35 238-335): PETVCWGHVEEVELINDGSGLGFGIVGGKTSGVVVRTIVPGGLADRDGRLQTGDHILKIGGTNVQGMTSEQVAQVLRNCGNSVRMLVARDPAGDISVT

Row | Binder | pKd
11 | HDDYFYHDEL [RCN2, Q14257] | below the threshold
12 | THREVKFTSL [CD46, P15529] | below the threshold

target: SNX27, Q96L92; assay: holdup assay; parameters: key: below the threshold = too weak to quantify, mostly under pKd 3.1 to 4; details: plain residues with an end cap or a label only (N-terminal biotin on a linker: ado-ado)

Row | Binder | pKd
13 | HDDYFYHDEL [RCN2, Q14257] | 3.77
14 | THREVKFTSL [CD46, P15529] | 4.35

target: IL16_3, Q14005; assay: holdup assay; parameters: key: below the threshold = too weak to quantify, mostly under pKd 3.1 to 4; details: plain residues with an end cap or a label only (N-terminal biotin on a linker: ado-ado)
Sequence (Q14005 1107-1207): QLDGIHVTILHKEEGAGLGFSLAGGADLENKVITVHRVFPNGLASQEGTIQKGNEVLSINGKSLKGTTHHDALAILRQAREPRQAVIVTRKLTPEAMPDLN

Row | Binder | pKd
15 | HDDYFYHDEL [RCN2, Q14257] | below the threshold
16 | THREVKFTSL [CD46, P15529] | below the threshold

target: FRMPD4, Q14CM0; assay: holdup assay; parameters: key: below the threshold = too weak to quantify, mostly under pKd 3.1 to 4; details: plain residues with an end cap or a label only (N-terminal biotin on a linker: ado-ado)
Sequence (Q14CM0 67-160): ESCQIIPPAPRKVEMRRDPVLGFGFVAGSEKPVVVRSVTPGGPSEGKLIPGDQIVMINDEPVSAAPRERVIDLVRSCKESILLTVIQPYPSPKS

Row | Binder | pKd
17 | HDDYFYHDEL [RCN2, Q14257] | 3.94
18 | THREVKFTSL [CD46, P15529] | 4.16

target: DLG1_2, Q12959; assay: holdup assay; parameters: key: below the threshold = too weak to quantify, mostly under pKd 3.1 to 4; details: plain residues with an end cap or a label only (N-terminal biotin on a linker: ado-ado)
Sequence (Q12959 314-412): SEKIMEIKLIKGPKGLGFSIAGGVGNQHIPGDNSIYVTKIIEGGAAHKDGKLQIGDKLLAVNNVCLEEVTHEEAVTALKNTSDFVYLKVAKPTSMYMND

Row | Binder | pKd
19 | HDDYFYHDEL [RCN2, Q14257] | below the threshold
20 | THREVKFTSL [CD46, P15529] | 3.88

target: T4, LNX2_2, Q8N448; assay: holdup assay; parameters: key: below the threshold = too weak to quantify, mostly under pKd 3.1 to 4; details: plain residues with an end cap or a label only (N-terminal biotin on a linker: ado-ado)

Row | Binder | pKd
21 | HDDYFYHDEL [RCN2, Q14257] | below the threshold
22 | THREVKFTSL [CD46, P15529] | below the threshold

target: IL16_4, Q14005; assay: holdup assay; parameters: key: below the threshold = too weak to quantify, mostly under pKd 3.1 to 4; details: plain residues with an end cap or a label only (N-terminal biotin on a linker: ado-ado)
Sequence (Q14005 1229-1329): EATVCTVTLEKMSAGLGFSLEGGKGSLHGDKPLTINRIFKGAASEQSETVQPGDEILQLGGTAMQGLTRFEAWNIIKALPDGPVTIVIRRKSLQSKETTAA

Row | Binder | pKd
23 | HDDYFYHDEL [RCN2, Q14257] | below the threshold
24 | THREVKFTSL [CD46, P15529] | 3.88

target: MAGI2_2, Q86UL8; assay: holdup assay; parameters: key: below the threshold = too weak to quantify, mostly under pKd 3.1 to 4; details: plain residues with an end cap or a label only (N-terminal biotin on a linker: ado-ado)
Sequence (Q86UL8 410-522): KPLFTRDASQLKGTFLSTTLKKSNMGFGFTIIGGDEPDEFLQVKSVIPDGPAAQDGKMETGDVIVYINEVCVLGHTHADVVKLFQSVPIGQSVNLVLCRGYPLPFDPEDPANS

Row | Binder | pKd
25 | HDDYFYHDEL [RCN2, Q14257] | below the threshold
26 | THREVKFTSL [CD46, P15529] | 3.88

target: T5, GRIP1_4, Q9Y3R0; assay: holdup assay; parameters: key: below the threshold = too weak to quantify, mostly under pKd 3.1 to 4; details: plain residues with an end cap or a label only (N-terminal biotin on a linker: ado-ado)

Row | Binder | pKd
27 | HDDYFYHDEL [RCN2, Q14257] | below the threshold
28 | THREVKFTSL [CD46, P15529] | below the threshold

target: T6, ARHGEF11, O15085; assay: holdup assay; parameters: key: below the threshold = too weak to quantify, mostly under pKd 3.1 to 4; details: plain residues with an end cap or a label only (N-terminal biotin on a linker: ado-ado)

Row | Binder | pKd
29 | HDDYFYHDEL [RCN2, Q14257] | 4
30 | THREVKFTSL [CD46, P15529] | 4.75

target: MAST2, Q6P0Q8; assay: holdup assay; parameters: key: below the threshold = too weak to quantify, mostly under pKd 3.1 to 4; details: plain residues with an end cap or a label only (N-terminal biotin on a linker: ado-ado)
Sequence (Q6P0Q8 1099-1202): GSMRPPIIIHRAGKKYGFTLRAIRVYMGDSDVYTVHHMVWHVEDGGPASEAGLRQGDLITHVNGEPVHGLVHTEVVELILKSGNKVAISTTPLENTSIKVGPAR

Row | Binder | pKd
31 | HDDYFYHDEL [RCN2, Q14257] | 4.85
32 | THREVKFTSL [CD46, P15529] | 5.57

target: GRIP2_5, Q9C0E4; assay: holdup assay; parameters: key: below the threshold = too weak to quantify, mostly under pKd 3.1 to 4; details: plain residues with an end cap or a label only (N-terminal biotin on a linker: ado-ado)
Sequence (Q9C0E4 544-642): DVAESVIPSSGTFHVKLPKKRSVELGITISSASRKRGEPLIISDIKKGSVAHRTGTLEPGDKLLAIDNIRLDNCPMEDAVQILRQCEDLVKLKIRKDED

Row | Binder | pKd
33 | HDDYFYHDEL [RCN2, Q14257] | below the threshold
34 | THREVKFTSL [CD46, P15529] | below the threshold

target: LAP2, Q96RT1; assay: holdup assay; parameters: key: below the threshold = too weak to quantify, mostly under pKd 3.1 to 4; details: plain residues with an end cap or a label only (N-terminal biotin on a linker: ado-ado)
Sequence (Q96RT1 other isoform, or with tags, fused parts or gaps): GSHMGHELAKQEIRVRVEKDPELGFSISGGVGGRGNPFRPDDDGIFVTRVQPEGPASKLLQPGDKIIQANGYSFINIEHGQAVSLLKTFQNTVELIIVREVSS

Row | Binder | pKd
35 | HDDYFYHDEL [RCN2, Q14257] | below the threshold
36 | THREVKFTSL [CD46, P15529] | below the threshold

target: T7, TIAM2, Q8IVF5; assay: holdup assay; parameters: key: below the threshold = too weak to quantify, mostly under pKd 3.1 to 4; details: plain residues with an end cap or a label only (N-terminal biotin on a linker: ado-ado)

Row | Binder | pKd
37 | HDDYFYHDEL [RCN2, Q14257] | below the threshold
38 | THREVKFTSL [CD46, P15529] | 4.06

target: T8, LNX2_3, Q8N448; assay: holdup assay; parameters: key: below the threshold = too weak to quantify, mostly under pKd 3.1 to 4; details: plain residues with an end cap or a label only (N-terminal biotin on a linker: ado-ado)

Row | Binder | pKd
39 | HDDYFYHDEL [RCN2, Q14257] | below the threshold
40 | THREVKFTSL [CD46, P15529] | below the threshold

target: T9, LIN7B, Q9HAP6; assay: holdup assay; parameters: key: below the threshold = too weak to quantify, mostly under pKd 3.1 to 4; details: plain residues with an end cap or a label only (N-terminal biotin on a linker: ado-ado)

Row | Binder | pKd
41 | HDDYFYHDEL [RCN2, Q14257] | below the threshold
42 | THREVKFTSL [CD46, P15529] | 3.88

target: T10, DLG3_3, Q92796; assay: holdup assay; parameters: key: below the threshold = too weak to quantify, mostly under pKd 3.1 to 4; details: plain residues with an end cap or a label only (N-terminal biotin on a linker: ado-ado)

Row | Binder | pKd
43 | HDDYFYHDEL [RCN2, Q14257] | below the threshold
44 | THREVKFTSL [CD46, P15529] | 4.21

target: T11, RADIL, Q96JH8; assay: holdup assay; parameters: key: below the threshold = too weak to quantify, mostly under pKd 3.1 to 4; details: plain residues with an end cap or a label only (N-terminal biotin on a linker: ado-ado)

Row | Binder | pKd
45 | HDDYFYHDEL [RCN2, Q14257] | 3.5
46 | THREVKFTSL [CD46, P15529] | 3.49

target: TJP2_1, Q9UDY2; assay: holdup assay; parameters: key: below the threshold = too weak to quantify, mostly under pKd 3.1 to 4; details: plain residues with an end cap or a label only (N-terminal biotin on a linker: ado-ado)
Sequence (Q9UDY2 24-128): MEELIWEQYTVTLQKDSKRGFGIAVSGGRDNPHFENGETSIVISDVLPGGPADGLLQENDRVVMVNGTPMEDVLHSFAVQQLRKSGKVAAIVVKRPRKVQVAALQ

Row | Binder | pKd
47 | HDDYFYHDEL [RCN2, Q14257] | below the threshold
48 | THREVKFTSL [CD46, P15529] | 3.73

target: T12, NHERF3_1, Q5T2W1; assay: holdup assay; parameters: key: below the threshold = too weak to quantify, mostly under pKd 3.1 to 4; details: plain residues with an end cap or a label only (N-terminal biotin on a linker: ado-ado)

Row | Binder | pKd
49 | HDDYFYHDEL [RCN2, Q14257] | 4.34
50 | THREVKFTSL [CD46, P15529] | 5.18

target: GIPC2, Q8TF65; assay: holdup assay; parameters: key: below the threshold = too weak to quantify, mostly under pKd 3.1 to 4; details: plain residues with an end cap or a label only (N-terminal biotin on a linker: ado-ado)
Sequence (Q8TF65 112-203): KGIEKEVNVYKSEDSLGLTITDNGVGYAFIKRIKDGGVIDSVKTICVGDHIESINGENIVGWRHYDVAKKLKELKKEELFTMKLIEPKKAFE

Row | Binder | pKd
51 | HDDYFYHDEL [RCN2, Q14257] | below the threshold
52 | THREVKFTSL [CD46, P15529] | below the threshold
